From the supplement of paper PMC9170038

Tested on: MS2 coat protein
Assay: apparent KD of MS2 coat protein; designed switch direction (-1 OFF switch, 1 ON switch): 1; higher = weaker reporter binding
In short: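 The reported apparent KD is a per-design median over clusters, from curve fits of normalised cluster fluorescence. Protein titrations used SNAP-549-labelled MS2 coat protein, doubled from 0.7 or 1.5 nM to 3 µM, in Tris-HCl pH 7.5 buffer with KCl, MgCl2, BSA, DTT, tRNA and Tween-20, with no input, 200 uM small-molecule ligand, or an oligonucleotide input. The RNA switches were transcribed on Illumina chips by stalled E. coli RNA polymerase.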

[1] = input ligand: microRNA oligo, concentration not stated
[2] = Eterna round: R95, input ligand: FMN 200 uM
[3] = Eterna round: R95, input ligand: microRNA oligo, concentration not stated
[4] = Eterna round: R95, input ligand: none

Row | Sequence | apparent KD of MS2 coat protein (input ligand: FMN 200 uM) | apparent KD of MS2 coat protein [1] | apparent KD of MS2 coat protein (input ligand: none) | apparent KD of MS2 coat protein [2] | apparent KD of MS2 coat protein [3] | apparent KD of MS2 coat protein [4]
1 | UUCCCAGCGGGAGGAUAUGGUGCCUUGUUGGUGCUAGAAGGUCCAACAUGAGGAUCACCCAUGUGGGAGUGGUUGAGAGACCUC [SS NG10LRO11] (Eterna round: R96, puzzle: Same State NG 1) | 225 nM | 200 nM | 274 nM |  |  | 
2 | UUCCCAUCGGGAGGAUAUGGUACCUUAUUGGUUCUAGAAGGUCCAACAUGAGGAUCACCCAUGUGGGAGUGGUCUAAUGACCUC [SS NG10LRO04] (Eterna round: R96, puzzle: Same State NG 1) | 247 nM | 326 nM | 311 nM |  |  | 
3 | UUCGAGUAGCAAGGAUAUCUUAUUUAGAUUUUAAGAGAAGGUGCUUCACAGCUACAUGAGGAUCACCCAUGUCUUUCUUCUUAU [JR_SSNG1_Sub065] (Eterna round: R96, puzzle: Same State NG 1) |  | 27.3 nM |  |  |  | 
4 | UUCUAACAUGAGGAUCACCCAUGUCAUAUGACAUGAGGAUAUGUACAGACUUCGGUCUGUACAGAAGGCAUGUUAG [SS1 - 1011 Omei Mod 7] (puzzle: Same State 1) |  |  |  | 31.6 nM | 10.7 nM | 20.5 nM
5 | UUCUCUUUUUAGAGACAAGCUUUUUGAUCACAUGAGGAUCACCCAUGUCUCGUCUUAUGAUCUACUUCGGUAGAUCU [BA Sensor hsa-mir-208a - 2 - 5] (puzzle: Sensor for hsa-mir-208a) |  |  |  | 155 nM | 13.9 nM | 144 nM
6 | UUGAAGAACUAAGGAUAUUGAAUACAUAUGUUUAACAUGAGGAUCACCCAUGUGGGUUGCGGUAUCGAGAAGGUAGAUUACUAG [Mat - Same State NG 2 - JL mod - D10] (Eterna round: R96, puzzle: Same State NG 2) |  | 83.4 nM |  |  |  | 
7 | UUGAAGAAUAAAGGAUAUUGAAUACAUAUGUUUAACAUGAGGAUCACCCAUGUGGGUUGCGGUAUCGAGAAGGUUAAUUACUAG [Mat - Same State NG 2 - JL mod - D11] (Eterna round: R96, puzzle: Same State NG 2) | 151 nM | 124 nM | 139 nM |  |  | 
8 | UUGAAGAAUUAAGGAUAUCGAGUCGUCAAAUUAAACAUGAGGAUCACCCAUGUGGGUUGUGGUAUCGAGAAGGUAAAUUACUAA [JR_SSNG2_Sub100] (Eterna round: R96, puzzle: Same State NG 2) | 57.1 nM | 66.4 nM | 84.7 nM |  |  | 
9 | UUGAAGAAUUAAGGAUAUUGAUUACAUAUGUUAAACAUGAGGAUCACCCAUGUGGGUUGCGGUAUCGAGAAGGUAAAUUAAAAG [Mat - same State NG 2 - JL mod - D78] (Eterna round: R96, puzzle: Same State NG 2) | 171 nM | 123 nM | 146 nM |  |  | 
10 | UUGAAUAAUUAAGGAUAUUGAGUACAUAUGUUUAACAUGAGGAUCACCCAUGUGGGUUGCGGUAUCGAGAAGGUAAAUUACUAG [Mat - same State NG 2 - JL mod - D67] (Eterna round: R96, puzzle: Same State NG 2) | 145 nM | 83.8 nM | 125 nM |  |  | 
11 | UUGAGGAAUUAAGGAUAUUGAGUACAUAUGUUUAACAUGAGGAUCACCCAUGUGGGUUGCGGUAUCGAGAAGGUAAAUUACUAG [JL SSNG2 1.46] (Eterna round: R96, puzzle: Same State NG 2) | 141 nM | 83.8 nM | 168 nM |  |  | 
12 | UUGCGGGAUUGAGGAUAUUGAGUACAUAUGUUUAACAUGAGGAUCACCCAUGUGGGUUGCGGUAUCGAGAAGGUAACUUACUAC [salish99_SSNG2_r04_805] (Eterna round: R96, puzzle: Same State NG 2) |  | 75.5 nM |  |  |  | 
13 | UUGCGGGCUUGAGGAUAUUGAGUACAUAUGUUUAACAUGAGGAUCACCCAUGUGGGUUGCGGUAUCGAGAAGGUAACUUCCUAC [salish99_SSNG2_r04_808] (Eterna round: R96, puzzle: Same State NG 2) | 169 nM | 92.5 nM | 153 nM |  |  | 
14 | UUGCGGGUUUGAGGAUAUUGAGUACAUAUGUUUAACAUGAGGAUCACCCAUGUGGGUUGCGGUAUCGAGAAGGUAACUUACUAC [salish99_SSNG2_r04_806] (Eterna round: R96, puzzle: Same State NG 2) | 179 nM | 68.9 nM | 110 nM |  |  | 
15 | UUGCUCGGGUGAGGAUAUGCCGCCGUUUCGGCUGCAGAAGGUGCUACGUUACAUGAGGAUCACCCAUGUCUCUGUUGUUUCGUC [salish99_SSNG1_r04_968] (Eterna round: R96, puzzle: Same State NG 1) | 65.1 nM | 28.1 nM | 52.3 nM |  |  | 
16 | UUGUUUAGUAAUUAACAUGAGGAUCACCCAUGUCUUGGCUCAGAGGAUAUGCAUGUUUGAUUGUAGCAGAAGGCUGAUUGUUGU [JR_SSNG3_Sub030] (Eterna round: R96, puzzle: Same State NG 3) | 65.1 nM | 148 nM | 107 nM |  |  | 

Row | Sequence | apparent KD of MS2 coat protein (input ligand: FMN 200 uM) | apparent KD of MS2 coat protein [1] | apparent KD of MS2 coat protein (input ligand: none) | apparent KD of MS2 coat protein [2] | apparent KD of MS2 coat protein [3] | apparent KD of MS2 coat protein [4]
17 | UUGUUUCACGUAGGAUAUCGACCUACAUGAGGAUCACCCAUGUUUUUGAAUAGAUUUUUUUGUUACGAGAAGGACGUUAUGUAU [JR_SSNG2_Sub065] (Eterna round: R96, puzzle: Same State NG 2) | 59.3 nM | 104 nM | 168 nM |  |  | 
18 | UUUACAUUACGAGGAUAUCAAUUAUUUCAUGUAUGAGAAGGCGUUAUUUUUACUACCUUACAUGAGGAUCACCCAUGUUUCAUU [JR_SSNG1_Sub041] (Eterna round: R96, puzzle: Same State NG 1) |  | 40.3 nM |  |  |  | 
19 | UUUACAUUACGAGGAUAUCAAUUAUUUCAUGUUUGAGAAGGCGUUUUUUUUAUUACCUUACAUGAGGAUCACCCAUGUUUCAUU [JR_SSNG1_Sub042] (Eterna round: R96, puzzle: Same State NG 1) | 19.4 nM | 18.4 nM | 25.5 nM |  |  | 
20 | UUUAGAUUCAGAGGAUAUUGAUGUUGUAAGUAACAAGAAGGCUGAUUGGUUAGAAUUGUUUAUUAACAUGAGGAUCACCCAUGU [JR_SSNG1_Sub010] (Eterna round: R96, puzzle: Same State NG 1) | 18.1 nM | 28.2 nM | 30.6 nM |  |  | 
21 | UUUAGGUACGGGCAGGAUAUGUAUUAAAAUACAUGAGGAUCACCCAUGUGCGGGUAUAACACCCGACAGAAGGGCCAAUCGUACC [Laonerce - 10] (puzzle: Same State 2) |  |  |  | 25.1 nM | 136 nM | 251 nM
22 | UUUAGUUGCGGGCAGGAUAUGUAUUAAAAUACAUGAGGAUCACCCAUGUGAGGCCGAAAAGGCCUACAGAAGGGCCAAACGCGAC [Laonerce - 23] (puzzle: Same State 2) |  |  |  | 14.4 nM | 84.5 nM | 117 nM
23 | UUUAGUUGCGGGCAGGAUAUGUAUUAAAAUACAUGAGGAUCACCCAUGUGUGGGUAUAACACCCAACAGAAGGGCCAAUCGCGAC [Laonerce - 12] (Eterna round: R96, puzzle: Same State 2) |  | 94.4 nM |  |  |  | 
24 | UUUAGUUGCGGGCAGGAUAUGUAUUAAAAUACAUGAGGAUCACCCAUGUGUGGGUAUAACACCCAACAGAAGGGCCAAUCGCGAC [Laonerce - 12] (puzzle: Same State 2) |  |  |  | 17.2 nM | 154 nM | 165 nM
25 | UUUAUAUUCAGAGGAUAUUAAAGUAGUAUAAUAUAAGAAGGCUGUUUGUUUUGUAAAUUUAUUCUACAUGAGGAUCACCCAUGU [JR_SSNG1_Sub086] (Eterna round: R96, puzzle: Same State NG 1) |  | 14.5 nM |  |  |  | 
26 | UUUAUAUUCAGAGGAUAUUAAUGUAGUAUAACAUAAGAAGGCUGUUUGUUUUGUAAAGUAAUUCUACAUGAGGAUCACCCAUGU [JR_SSNG1_Sub084] (Eterna round: R96, puzzle: Same State NG 1) |  | 15.5 nM |  |  |  | 
27 | UUUAUAUUCAGAGGAUAUUAAUGUAGUAUAAUAUAAGAAGGCUGUUUGUUUUGUAAAGUUAUUAUACAUGAGGAUCACCCAUGU [JR_SSNG1_Sub083] (Eterna round: R96, puzzle: Same State NG 1) |  | 13.5 nM |  |  |  | 
28 | UUUGCAUGACGAGGAUAUCAUUUAUUUCUUGAUUGAGAAGGCGUUCUUUUUAUUACCUAACAUGAGGAUCACCCAUGUGACAGU [JR_SSNG1_Sub046] (Eterna round: R96, puzzle: Same State NG 1) | 13.2 nM | 10.3 nM | 16.7 nM |  |  | 
29 | UUUGCAUGACGAGGAUAUCAUUUAUUUCUUGAUUGAGAAGGCGUUCUUUUUCCUACCUAACAUGAGGAUCACCCAUGUGACAGU [JR_SSNG1_Sub049] (Eterna round: R96, puzzle: Same State NG 1) | 12.7 nM | 12 nM | 14 nM |  |  | 
30 | UUUUUUAUCGUAGGAUAUAGGUUGAAUAAUAGACUAGAAGGACGUGACAUGAGGAUCACCCAUGUUUUUUAAGUGUCGAAGUGU [JR_SSNG1_Sub039] (Eterna round: R96, puzzle: Same State NG 1) |  | 19.6 nM |  |  |  | 
31 | UUUUUUUUACAUGAGGAUCACCCAUGUCGGGCUGUUUGCUUUCAUGUCUUAUUGCAUGCAUGUUUUUCAUGCAUGCU [jnicol vienna2 solution] (puzzle: Sensor for hsa-mir-208a version 2) |  |  |  | 97.7 nM | 129 nM | 145 nM
